B1: Syntenin-1 (Mus musculus), O08992 (parent)
chain: MSLYPSLEDLKVDKVIQAQTAYSANPASQAFVLVDASAALPPDGNLYPKLYPELSQYMGLSLNEAEICESMPMVSGAPAQGQLVARPSSVNYMVAPVTGNDAGIRRAEIKQGIREVILCKDQDGKIGLRLKSIDNGIFVQLVQANSPASLVGLRFGDQVLQINGENCAGWSSDKAHKVLKQAFGEKITMTIRDRPFERTVTMHKDSSGHVGFIFKSGKITSIVKDSSAARNGLLTDHHICEINGQNVIGLKDAQIADILSTAGTVVTITIMPTFIFEHIIKRMAPSIMKSLMDHTIPEV
partner: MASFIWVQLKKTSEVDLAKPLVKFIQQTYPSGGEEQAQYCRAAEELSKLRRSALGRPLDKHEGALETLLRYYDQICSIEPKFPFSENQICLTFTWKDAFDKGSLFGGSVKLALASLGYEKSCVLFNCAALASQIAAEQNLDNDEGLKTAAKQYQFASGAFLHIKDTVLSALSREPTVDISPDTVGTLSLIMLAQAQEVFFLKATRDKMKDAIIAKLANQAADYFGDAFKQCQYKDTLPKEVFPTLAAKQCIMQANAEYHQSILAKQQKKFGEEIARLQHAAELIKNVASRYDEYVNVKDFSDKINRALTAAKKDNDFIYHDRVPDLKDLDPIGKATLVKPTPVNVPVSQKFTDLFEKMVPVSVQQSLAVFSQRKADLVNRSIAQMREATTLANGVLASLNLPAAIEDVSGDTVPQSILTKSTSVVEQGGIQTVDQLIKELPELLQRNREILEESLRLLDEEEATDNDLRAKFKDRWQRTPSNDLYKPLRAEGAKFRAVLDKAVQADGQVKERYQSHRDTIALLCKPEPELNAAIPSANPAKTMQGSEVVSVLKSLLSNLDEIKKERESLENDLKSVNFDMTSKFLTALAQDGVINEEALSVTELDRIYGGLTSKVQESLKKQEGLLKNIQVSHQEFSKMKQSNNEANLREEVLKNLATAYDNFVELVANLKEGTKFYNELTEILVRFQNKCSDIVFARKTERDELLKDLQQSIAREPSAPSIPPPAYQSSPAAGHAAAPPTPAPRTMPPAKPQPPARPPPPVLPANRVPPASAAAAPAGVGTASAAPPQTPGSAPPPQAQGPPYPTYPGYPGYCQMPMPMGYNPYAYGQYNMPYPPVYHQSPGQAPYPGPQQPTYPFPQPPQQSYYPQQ

Variants of: B1
Details: with pdc6i_mouse Pdcd6ip
With Y4A;P5A;Y47A;P48A;Y51A;P52A the “effect of a mutation on the interaction” value was “disrupting interaction”.

Variants of: B1
Details: with pdc6i_mouse Pdcd6ip
Remark: another data set of the same source
With Y4A;P5A;Y47A;P48A;Y51A;P52A the “effect of a mutation on the interaction” value was “disrupting interaction”.
With Y51A;P52A the “effect of a mutation on the interaction” value was “disrupting interaction”.

From IntAct's records for PubMed 22660413
